Data from US20070231329A1.
Values belong to the substance of their own block, whether it stands above or below them.

Assays:
[1] = molecular target: extracellular region of human F158 FcγRIIIa with C-terminal 6x His-tag and GST-tag (human) (UniProt P08637); assay: SPR, receptor immobilized, antibody flowed
[2] = molecular target: extracellular region of human V158 FcγRIIIa with C-terminal 6x His-tag and GST-tag (human) (UniProt P08637); assay: SPR, His-tagged receptor immobilized, antibody flowed
Sequence of extracellular region of human V158 FcγRIIIa with C-terminal 6x His-tag and GST-tag (human) (P08637 17-208 F176V, chain 1 of 2): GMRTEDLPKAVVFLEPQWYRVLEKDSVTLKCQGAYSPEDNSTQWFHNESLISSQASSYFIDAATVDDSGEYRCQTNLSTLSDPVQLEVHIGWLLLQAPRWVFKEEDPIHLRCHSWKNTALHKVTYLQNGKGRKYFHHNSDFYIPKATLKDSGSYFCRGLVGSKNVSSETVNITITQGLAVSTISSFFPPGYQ
Sequence of extracellular region of human V158 FcγRIIIa with C-terminal 6x His-tag and GST-tag (human) (P08515 whole entry, chain 2 of 2, further chain): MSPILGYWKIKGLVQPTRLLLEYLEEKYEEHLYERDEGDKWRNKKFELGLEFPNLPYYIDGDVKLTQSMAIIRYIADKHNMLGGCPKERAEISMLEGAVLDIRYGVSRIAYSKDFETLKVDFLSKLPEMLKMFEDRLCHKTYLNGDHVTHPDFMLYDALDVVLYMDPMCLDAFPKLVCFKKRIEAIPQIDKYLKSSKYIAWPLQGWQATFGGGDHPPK

[3] = molecular target: extracellular region of human V158 FcγRIIIa with C-terminal 6x His-tag and GST-tag (human) (UniProt P08637); assay: SPR
[4] = molecular target: FcγRIIIa on human PBMCs expressing heterozygous V158/F158 FcγRIIIa (human) (UniProt P08637); assay: cell-based or functional assay

Sequence of extracellular region of human F158 FcγRIIIa with C-terminal 6x His-tag and GST-tag (human) (P08637 17-208, chain 1 of 2): as the sequence (P08637 17-208 F176V, chain 1 of 2) above, with V160F counted along it
Sequence of extracellular region of human F158 FcγRIIIa with C-terminal 6x His-tag and GST-tag (human) (P08515 whole entry, chain 2 of 2, further chain): as the sequence (P08515 whole entry, chain 2 of 2, further chain) above

Substance: E283H alemtuzumab (antibody)
Fold WT V158 FcγRIIIa [3]: 2.31 fold

Substance: V264I/I332E alemtuzumab (antibody)
ADCC, DoHH-2 target cells: EC50 [4]: 4 ng/mL | ADCC, DoHH-2 target cells: log (EC50) [4]: 0.6 log (ng/ml) | Kd [1]: 52 nM | Kd [2]: 17 nM

Substance: I332E alemtuzumab (antibody)
Kd [1]: 72 nM | Kd [2]: 31 nM

Substance: S239D/I332E alemtuzumab (antibody)
ADCC, DoHH-2 target cells: EC50 [4]: 3 ng/mL | ADCC, DoHH-2 target cells: Fold WT [4]: 3.3 fold | ADCC, DoHH-2 target cells: log (EC50) [4]: 0.49 log (ng/ml)

Substance: E272R alemtuzumab (antibody)
Fold WT V158 FcγRIIIa [3]: 1.38 fold

Substance: S298A alemtuzumab (antibody)
Kd [1]: 285 nM | Kd [2]: 52 nM

Substance: V264I alemtuzumab (antibody)
Kd [1]: 550 nM | Kd [2]: 64 nM

Continued, values first:

Kd [1]: 156 nM | Kd [2]: 39 nM
Substance: S298A/E333A/K334A alemtuzumab (antibody)

Fold WT V158 FcγRIIIa [3]: 12.8 fold
Substance: S304T alemtuzumab (antibody)

Fold WT V158 FcγRIIIa [3]: 1.51 fold
Substance: V284E alemtuzumab (antibody)
